Among the targets are MMP 9 (UniProt P14780 20-707, limits assumed); MMP 14 (UniProt P50281 21-538); MMP 3 (UniProt P08254 18-477, limits assumed); MMP 12 (UniProt P39900 17-470, limits assumed).
Common to all, as to experiment: cell-based or functional assay
For assay [1], the target named is T1, Human ADAM10 from R & D Systems (human, UniProt O14672 214-672).
T1 sequence (looked up): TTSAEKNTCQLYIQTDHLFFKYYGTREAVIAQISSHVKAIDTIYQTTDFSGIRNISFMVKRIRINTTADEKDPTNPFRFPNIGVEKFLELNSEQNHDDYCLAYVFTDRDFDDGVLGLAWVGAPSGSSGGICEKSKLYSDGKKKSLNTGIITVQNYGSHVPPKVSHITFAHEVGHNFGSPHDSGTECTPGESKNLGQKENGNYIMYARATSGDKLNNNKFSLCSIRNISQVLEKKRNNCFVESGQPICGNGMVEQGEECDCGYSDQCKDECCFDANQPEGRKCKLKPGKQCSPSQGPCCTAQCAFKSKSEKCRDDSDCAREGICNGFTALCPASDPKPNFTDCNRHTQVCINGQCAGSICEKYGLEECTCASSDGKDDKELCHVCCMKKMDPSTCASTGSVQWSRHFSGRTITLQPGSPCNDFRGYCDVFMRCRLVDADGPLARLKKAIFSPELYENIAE

Assay [2] addresses Meprin from R & D Systems.
The target of another assay is T2, MMP 2 (UniProt P08253 30-660, limits assumed).
T2 sequence (looked up): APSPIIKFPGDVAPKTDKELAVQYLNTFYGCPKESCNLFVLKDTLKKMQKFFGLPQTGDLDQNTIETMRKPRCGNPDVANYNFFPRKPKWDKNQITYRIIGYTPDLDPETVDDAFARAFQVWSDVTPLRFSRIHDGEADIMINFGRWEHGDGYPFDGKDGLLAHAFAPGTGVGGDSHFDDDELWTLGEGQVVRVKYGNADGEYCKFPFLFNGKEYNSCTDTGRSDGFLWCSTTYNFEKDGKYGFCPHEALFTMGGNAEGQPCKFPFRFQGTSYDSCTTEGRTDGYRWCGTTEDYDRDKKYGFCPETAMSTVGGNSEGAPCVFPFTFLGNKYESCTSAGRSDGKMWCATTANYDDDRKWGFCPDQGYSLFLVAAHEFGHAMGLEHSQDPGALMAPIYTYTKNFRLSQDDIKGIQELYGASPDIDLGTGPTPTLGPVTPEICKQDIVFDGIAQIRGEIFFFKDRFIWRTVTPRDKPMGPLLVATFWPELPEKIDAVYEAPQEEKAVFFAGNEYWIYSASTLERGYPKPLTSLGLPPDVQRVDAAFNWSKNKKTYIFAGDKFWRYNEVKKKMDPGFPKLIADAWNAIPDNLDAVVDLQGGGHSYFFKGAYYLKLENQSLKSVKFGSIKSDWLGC

Chain of MMP 9 (P14780 20-707 limits assumed): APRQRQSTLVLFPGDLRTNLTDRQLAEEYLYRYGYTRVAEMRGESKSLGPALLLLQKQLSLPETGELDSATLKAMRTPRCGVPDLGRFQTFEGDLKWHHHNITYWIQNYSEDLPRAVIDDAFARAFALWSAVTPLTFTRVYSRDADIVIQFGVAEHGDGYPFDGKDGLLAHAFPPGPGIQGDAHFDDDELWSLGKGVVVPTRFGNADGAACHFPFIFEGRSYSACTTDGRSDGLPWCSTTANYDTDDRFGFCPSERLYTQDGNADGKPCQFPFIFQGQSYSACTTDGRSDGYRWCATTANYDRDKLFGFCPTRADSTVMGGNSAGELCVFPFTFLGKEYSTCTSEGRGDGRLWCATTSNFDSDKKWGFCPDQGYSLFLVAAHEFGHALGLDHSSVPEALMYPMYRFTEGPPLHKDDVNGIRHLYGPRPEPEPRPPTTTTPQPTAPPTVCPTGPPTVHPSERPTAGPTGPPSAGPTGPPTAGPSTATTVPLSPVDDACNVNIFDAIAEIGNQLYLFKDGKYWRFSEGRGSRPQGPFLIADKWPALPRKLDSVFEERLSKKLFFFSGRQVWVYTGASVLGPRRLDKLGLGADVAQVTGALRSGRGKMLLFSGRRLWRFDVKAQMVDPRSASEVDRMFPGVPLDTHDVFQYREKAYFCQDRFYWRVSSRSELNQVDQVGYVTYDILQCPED
Chain of MMP 3 (P08254 18-477 limits assumed): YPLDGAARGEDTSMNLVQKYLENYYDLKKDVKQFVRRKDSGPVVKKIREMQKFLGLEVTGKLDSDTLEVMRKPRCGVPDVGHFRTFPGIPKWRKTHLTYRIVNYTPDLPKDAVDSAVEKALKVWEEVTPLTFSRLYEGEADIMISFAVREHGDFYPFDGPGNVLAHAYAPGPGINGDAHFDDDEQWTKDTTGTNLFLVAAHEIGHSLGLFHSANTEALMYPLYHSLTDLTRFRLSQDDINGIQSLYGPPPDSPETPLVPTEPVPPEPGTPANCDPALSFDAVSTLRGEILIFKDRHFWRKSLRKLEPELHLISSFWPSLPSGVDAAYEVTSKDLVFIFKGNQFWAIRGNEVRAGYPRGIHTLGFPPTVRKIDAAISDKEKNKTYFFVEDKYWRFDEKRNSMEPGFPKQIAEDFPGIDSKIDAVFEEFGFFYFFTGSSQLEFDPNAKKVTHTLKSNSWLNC
Chain of MMP 12 (P39900 17-470 limits assumed): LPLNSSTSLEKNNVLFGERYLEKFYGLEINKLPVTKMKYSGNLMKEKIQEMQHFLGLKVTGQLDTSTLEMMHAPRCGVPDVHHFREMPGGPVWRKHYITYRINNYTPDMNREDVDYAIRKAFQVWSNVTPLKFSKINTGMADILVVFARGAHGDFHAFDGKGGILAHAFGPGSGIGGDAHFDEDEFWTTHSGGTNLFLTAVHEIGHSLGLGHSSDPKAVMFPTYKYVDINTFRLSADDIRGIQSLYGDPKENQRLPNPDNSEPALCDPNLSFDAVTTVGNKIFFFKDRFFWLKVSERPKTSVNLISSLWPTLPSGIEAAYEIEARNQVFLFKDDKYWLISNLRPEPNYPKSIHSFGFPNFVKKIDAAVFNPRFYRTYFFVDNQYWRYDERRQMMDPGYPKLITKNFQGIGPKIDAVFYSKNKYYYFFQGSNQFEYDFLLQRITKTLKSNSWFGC

B1: SEQ ID NO: 65 (R26A; R52A; C151S) (peptide)
chain: NPLNKYIRHYEGLSYNVDSLHQKHQAAKRAVSHEDQFLRLDFHAHGRHFNLAMKRDTSLFSDEFKVETSNKVLDYDTSHIYTGHIYGEEGSFSHGSVIDGRFEGFIQTRGGTFYVEPAERYIKDRTLPFHSVIYHEDDINYPHKYGPQGGSADHSVFERMRKYQMTGVEEVTQIPQAEHAANGPELLRK
Turning to B1, the “IC50 (nM), inhibition of ADAM10 cleavage of the fluorescent substrate PEPDAB064” value in assay [1] came out at 49 nM. Moreover, the “IC50 (nM), inhibition of meprin cleavage of the fluorescent substrate PEPDAB022” value in assay [2] came to 289 nM.

B2: SEQ ID NO: 6 (mut2; K28A; K54A; C151S) (peptide)
chain: NPLNKYIRHYEGLSYNVDSLHQKHQRAARAVSHEDQFLRLDFHAHGRHFNLRMARDTSLFSDEFKVETSNKVLDYDTSHIYTGHIYGEEGSFSHGSVIDGRFEGFIQTRGGTFYVEPAERYIKDRTLPFHSVIYHEDDINYPHKYGPQGGSADHSVFERMRKYQMTGVEEVTQIPQEEHAANGPELLRK
Turning to B2, in assay [1], the “IC50 (nM), inhibition of ADAM10 cleavage of the fluorescent substrate PEPDAB064” value stood at 106 nM.

B3: SEQ ID NO: 62 (R29A; R55A; C151S; E177A) (peptide)
chain: NPLNKYIRHYEGLSYNVDSLHQKHQRAKAAVSHEDQFLRLDFHAHGRHFNLRMKADTSLFSDEFKVETSNKVLDYDTSHIYTGHIYGEEGSFSHGSVIDGRFEGFIQTRGGTFYVEPAERYIKDRTLPFHSVIYHEDDINYPHKYGPQGGSADHSVFERMRKYQMTGVEEVTQIPQAEHAANGPELLRK
As to B3, the “percent inhibition of MMP activity (PEPDAB008 substrate)” value with MMP 9, with MMP 14, in the assay with MMP 2, with MMP 3 and in the assay with MMP 12 was 0 % at 8 µM in each case. Besides, the “IC50 (nM), inhibition of ADAM10 cleavage of the fluorescent substrate PEPDAB064” value in assay [1] is 110 nM. For the same molecule, in assay [2], the “IC50 (nM), inhibition of meprin cleavage of the fluorescent substrate PEPDAB022” value was 817 nM.

B4: SEQ ID NO: 5 (mut 1; K28A; K54A) (peptide)
chain: NPLNKYIRHYEGLSYNVDSLHQKHQRAARAVSHEDQFLRLDFHAHGRHFNLRMARDTSLFSDEFKVETSNKVLDYDTSHIYTGHIYGEEGSFSHGSVIDGRFEGFIQTRGGTFYVEPAERYIKDRTLPFHSVIYHEDDINYPHKYGPQGGCADHSVFERMRKYQMTGVEEVTQIPQEEHAANGPELLRK
Turning to B4, the “IC50 (nM), inhibition of ADAM10 cleavage of the fluorescent substrate PEPDAB064” value in assay [1] is 104 nM.

B5: SEQ ID NO: 34 (R29A; C151S; E177A) (peptide)
chain: NPLNKYIRHYEGLSYNVDSLHQKHQRAKAAVSHEDQFLRLDFHAHGRHFNLRMKRDTSLFSDEFKVETSNKVLDYDTSHIYTGHIYGEEGSFSHGSVIDGRFEGFIQTRGGTFYVEPAERYIKDRTLPFHSVIYHEDDINYPHKYGPQGGSADHSVFERMRKYQMTGVEEVTQIPQAEHAANGPELLRK
Regarding B5, the “IC50 (nM), inhibition of ADAM10 cleavage of the fluorescent substrate PEPDAB064” value in assay [1] was found to be 95 nM. Also, the “IC50 (nM), inhibition of meprin cleavage of the fluorescent substrate PEPDAB022” value in assay [2] was determined as 289 nM.

B6: SEQ ID NO: 9 (mut3; K28A; K54A; E88A; E177A) (peptide)
chain: NPLNKYIRHYEGLSYNVDSLHQKHQRAARAVSHEDQFLRLDFHAHGRHFNLRMARDTSLFSDEFKVETSNKVLDYDTSHIYTGHIYGAEGSFSHGSVIDGRFEGFIQTRGGTFYVEPAERYIKDRTLPFHSVIYHEDDINYPHKYGPQGGCADHSVFERMRKYQMTGVEEVTQIPQAEHAANGPELLRK
Regarding B6, the “IC50 (nM), inhibition of ADAM10 cleavage of the fluorescent substrate PEPDAB064” value in assay [1] was determined as 142 nM.

B7: SEQ ID NO: 63 (R29K; R55K; C151S; E177A) (peptide)
chain: NPLNKYIRHYEGLSYNVDSLHQKHQRAKKAVSHEDQFLRLDFHAHGRHFNLRMKKDTSLFSDEFKVETSNKVLDYDTSHIYTGHIYGEEGSFSHGSVIDGRFEGFIQTRGGTFYVEPAERYIKDRTLPFHSVIYHEDDINYPHKYGPQGGSADHSVFERMRKYQMTGVEEVTQIPQAEHAANGPELLRK
Take B7: in assay [1], the “IC50 (nM), inhibition of ADAM10 cleavage of the fluorescent substrate PEPDAB064” value amounted to 35 nM. In assay [2], the “IC50 (nM), inhibition of meprin cleavage of the fluorescent substrate PEPDAB022” value came to 542 nM.

B8: SEQ ID NO: 66 (SEQ ID NO: 1/SEQ ID NO: 2 hybrid; R26A; R55A; C151S; E177A) (peptide)
chain: NPLNKYIRHYEGLSYNVDSLHQKHQAAKRAVSHEDQFLLLDFHAHGRQFNLRMKADTSLFSDEFKVETSNKVPDYDTSHIYTGHIYGEEGSFSHGSVIDGRFEGFIKTRGGTFYIEPAERYIKDRILPFHSVIYHEDDINYPHKYGPQGGSADHSVFERMRKYQMTGVEEVTQIPQAEHAANGPELLRK
For B8, the “IC50 (nM), inhibition of ADAM10 cleavage of the fluorescent substrate PEPDAB064” value in assay [1] worked out at 234 nM.

B9: SEQ ID NO: 68 (R26A; R55A; C151S) (peptide)
chain: NPLNKYIRHYEGLSYNVDSLHQKHQAAKRAVSHEDQFLRLDFHAHGRHFNLRMKADTSLFSDEFKVETSNKVLDYDTSHIYTGHIYGEEGSFSHGSVIDGRFEGFIQTRGGTFYVEPAERYIKDRTLPFHSVIYHEDDINYPHKYGPQGGSADHSVFERMRKYQMTGVEEVTQIPQAEHAANGPELLRK
With B9, the “IC50 (nM), inhibition of ADAM10 cleavage of the fluorescent substrate PEPDAB064” value in assay [1] is 130 nM.

B10: C-term PEG-SEQ ID NO: 69 (R29K; R55K; E177A) (peptide)
chain: NPLNKYIRHYEGLSYNVDSLHQKHQRAKKAVSHEDQFLRLDFHAHGRHFNLRMKKDTSLFSDEFKVETSNKVLDYDTSHIYTGHIYGEEGSFSHGSVIDGRFEGFIQTRGGTFYVEPAERYIKDRTLPFHSVIYHEDDINYPHKYGPQGGCADHSVFERMRKYQMTGVEEVTQIPQAEHAANGPELLRK
modifications: 10 kDa maleimide PEG on a cysteine; printed as 'C-term PEG' in Table 5 (the listed changes keep Cys151, and paragraph 162 speaks of a cysteine at C151, or the N- or C-terminus, for SEQ ID NOs: 69-71)
In the case of B10, in assay [1], the “IC50 (nM), inhibition of ADAM10 cleavage of the fluorescent substrate PEPDAB064” value was 71 nM. Further, the “IC50, inhibition of meprin cleavage of the fluorescent substrate PEPDAB022” value (from here on “IC50, inhibition”) in assay [2] was around 5000 nM.

B11: Cys151-pegylated SEQ ID NO: 5 (K28A; K54A) (peptide)
chain: NPLNKYIRHYEGLSYNVDSLHQKHQRAARAVSHEDQFLRLDFHAHGRHFNLRMARDTSLFSDEFKVETSNKVLDYDTSHIYTGHIYGEEGSFSHGSVIDGRFEGFIQTRGGTFYVEPAERYIKDRTLPFHSVIYHEDDINYPHKYGPQGGCADHSVFERMRKYQMTGVEEVTQIPQEEHAANGPELLRK
modifications: 10 kDa maleimide PEG on Cys151
With B11, the “IC50 (nM), inhibition of ADAM10 cleavage of the fluorescent substrate PEPDAB064” value in assay [1] is 83 nM.

B12: C-term PEG-SEQ ID NO: 71 (R29K; R55K; C151S; E177A) (peptide)
chain: NPLNKYIRHYEGLSYNVDSLHQKHQRAKKAVSHEDQFLRLDFHAHGRHFNLRMKKDTSLFSDEFKVETSNKVLDYDTSHIYTGHIYGEEGSFSHGSVIDGRFEGFIQTRGGTFYVEPAERYIKDRTLPFHSVIYHEDDINYPHKYGPQGGSADHSVFERMRKYQMTGVEEVTQIPQAEHAANGPELLRKGSGSC
modifications: 10 kDa maleimide PEG on a cysteine at the C-terminus ('C-term PEG')
Consider B12, for which the “IC50 (nM), inhibition of ADAM10 cleavage of the fluorescent substrate PEPDAB064” value in assay [1] amounted to 19 nM. Moreover, the “IC50, inhibition” value in assay [2] was around 4000 nM.

B13: SEQ ID NO: 64 (SEQ ID NO: 2 with R29K; R55K; C151S) (peptide)
chain: NPLNKYIRHYEGLSYNVDSLHQKHQRAKKAVSHEDQFLLLDFHAHGRQFNLRMKKDTSLFSDEFKVETSNKVLDYDTSHIYTGHIYGEEGSFSHGSVIDGRFEGFIKTRGGTFYIEPAERYIKDRILPFHSVIYHEDDINYPHKYGPQGGSADHSVFERMRKYQMTGVEEGARAHPEKHAASSGPELLRK
B13: in assay [1], the “IC50 (nM), inhibition of ADAM10 cleavage of the fluorescent substrate PEPDAB064” value came to 83 nM. Also, the “IC50 (nM), inhibition of meprin cleavage of the fluorescent substrate PEPDAB022” value in assay [2] stood at 682 nM.

B14: SEQ ID NO: 67 (SEQ ID NO: 1/SEQ ID NO: 2 hybrid; R26A; R52A; C151S) (peptide)
chain: NPLNKYIRHYEGLSYNVDSLHQKHQAAKRAVSHEDQFLRLDFHAHGRHFNLAMKRDTSLFSDEFKVETSNKVLDYDTSHIYTGHIYGEEGSFSHGSVIDGRFEGFIQTRGGTFYVEPAERYIKDRTLPFHSVIYHEDDINYPHKYGPQGGSADHSVFERMRKYQMTGVEEGARAHPEKHAASSGPELLRK
In the case of B14, the “IC50 (nM), inhibition of ADAM10 cleavage of the fluorescent substrate PEPDAB064” value in assay [1] came out at 147 nM.

B15: N-term PEG-SEQ ID NO: 70 (R29K; R55K; C151S; E177A) (peptide)
chain: CGSNPLNKYIRHYEGLSYNVDSLHQKHQRAKKAVSHEDQFLRLDFHAHGRHFNLRMKKDTSLFSDEFKVETSNKVLDYDTSHIYTGHIYGEEGSFSHGSVIDGRFEGFIQTRGGTFYVEPAERYIKDRTLPFHSVIYHEDDINYPHKYGPQGGSADHSVFERMRKYQMTGVEEVTQIPQAEHAANGPELLRK
modifications: 10 kDa maleimide PEG on a cysteine at the N-terminus ('N-term PEG')
As for B15, in assay [1], the “IC50 (nM), inhibition of ADAM10 cleavage of the fluorescent substrate PEPDAB064” value is 52 nM. Further, in assay [2], the “IC50, inhibition” value was around 7000 nM.

Values taken from patent US20250207119A1 (VERRA THERAPEUTICS, published 2025).
